Reference: patent publication US20060257938A1, “Method of screening for drugs that block ligand binding to a lipid binding protein” (priority 2005, published 2006)
Where “and” joins values, the source holds several entries; their conditions need not be identical. Identical values can stand only once.

What was measured:
Format in all cases: binding
[1] = Probe fluorescence ratio response to palmitic acid relative to ADIFAB2; details: response relative to ADIFAB2
Procedure, shortened: (§1)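 Each fatty acid's response was expressed relative to ADIFAB2, the rI-FABP-L72A probe, as ΔR/ΔRreference. ΔR is the change in the background-corrected two-wavelength intensity ratio R=Fλ1/Fλ2 from its analyte-free baseline R0. Emission was read near about 420-480 nm for unbound and about 495-580 nm for FFA-bound probe.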

[2] = Probe fluorescence ratio response to oleic acid relative to ADIFAB2; details: response relative to ADIFAB2
Procedure, shortened: as §1

[3] = Probe fluorescence ratio response to linoleic acid relative to ADIFAB2; details: response relative to ADIFAB2
Procedure, shortened: as §1

[4] = Probe fluorescence ratio response to stearic acid relative to ADIFAB2; details: response relative to ADIFAB2
From the text: (§2) In an alternate preferred embodiment, the protein is rI-FABP that has Ala substituted for Leu at position 72 (rI-FABP-L72A) with the resulting probe named ADIFAB2. […] Other probes useful in embodiments of the invention are shown in Tables 1-6 and are also described in U.S. application Ser. No. 11/085,792, filed Mar. 21, 2005 which is incorporated herein by reference. The indicated substitutions are with reference to the ADIFAB protein of SEQ ID NO: 2.
(§3) ADIFAB2 also has an altered spectral response, making it especially useful for measurements of FFAu in blood samples (Apple et al, Clinical Proteomics, (2004) 1:41-44, U.S. patent application Ser. No. 10/670,958). The wavelengths at the maximum intensities emitted by these fluorescently-labeled I-FABP's in the absence of FFA is about 420 to 480 nm. The emission wavelengths at the maximum intensities emitted by these fluorescently-labeled I-FABP's with FFA bound are between about 495 to 580 nm. Experiments typically involve measuring the fluorescence response within both emission maxima or at wavelengths for which the effect of interfering molecules such as hemoglobin can be eliminated as described in U.S. application Ser. No. 10/670958 and PCT/US2004/030521 and the calculation of the ratio ‘R’ of the two fluorescence intensities. The baseline value for this ratio, measured in the absence of analyte, is designated R0.
(§4) The intensity ratio (“R” value) is determined as follows. The ratio is calculated using the following formula: R=Fλ1/Fλ2 wherein, Fλ1 is the measured fluorescence intensities (intensity of sample with probe present minus intensity of sample without probe present) at wavelength 1 and Fλ2 is the measured fluorescence intensities (intensity of sample with probe present minus intensity of sample without probe present) at wavelength 2. Then, for a given probe, ΔR, the difference in R value between the measurement in the presence of the test compound (agent) and in the absence of the test compound (agent), is calculated as follows: ΔR=R+agent−R0 In some embodiments, the ΔR value may then be compared to some reference, for example, an agent with a known affinity for a given probe, by ΔR/ΔRreference. Measurements of fluorescence intensities are obtained using standard techniques.

[5] = Probe fluorescence ratio response to arachidonic acid relative to ADIFAB2; details: arachidonic acid; response relative to ADIFAB2
Procedure, shortened: as §1

[6] = Probe fluorescence ratio response to palmitoleic acid relative to ADIFAB2; details: response relative to ADIFAB2
From the text: as §2, §3, §4

[7] = Probe fluorescence ratio response to linolenic acid relative to ADIFAB2; details: response relative to ADIFAB2
Procedure, shortened: as §1

Molecule | DR/DR PA [1] | DR/DR OA [2] | DR/DR LA [3] | DR/DR SA [4] | DR/DR AA [5] | DR/DR POA [6] | DR/DR LNA [7]
72S 73M 74A (protein, listed as Rattus norvegicus, PEPTIDE (1)...(131) wild-type rat intestinal fatty acid binding protein) AFDGTWKVDRNENYEKFMEKMGINVVKRKLGAHDNLKLTITQEGNKFTVKESSNFRNIDVVFELGVDFAYSSMAGTELTGTWTMEGNKLVGKFKRVDNGKELIAVREISGNELIQTYTYEGVEAKRIFKKE | 2.524 | 2.443 | 2.470 | 1.776 | 2.759 | 2.854 | 2.567
18I 31A 73F 72A (protein, listed as Rattus norvegicus, PEPTIDE (1)...(131) wild-type rat intestinal fatty acid binding protein) AFDGTWKVDRNENYEKFIEKMGINVVKRKLAAHDNLKLTITQEGNKFTVKESSNFRNIDVVFELGVDFAYSAFDGTELTGTWTMEGNKLVGKFKRVDNGKELIAVREISGNELIQTYTYEGVEAKRIFKKE | 1.515 and 1.372 | 0.950 and 0.995 | 1.732 and 1.652 | 0.404 and 0.406 | 1.314 and 1.296 | 2.730 and 2.522 | 2.318 and 2.203
72A 73W 74V (protein, listed as Rattus norvegicus, PEPTIDE (1)...(131) wild-type rat intestinal fatty acid binding protein) AFDGTWKVDRNENYEKFMEKMGINVVKRKLGAHDNLKLTITQEGNKFTVKESSNFRNIDVVFELGVDFAYSAWVGTELTGTWTMEGNKLVGKFKRVDNGKELIAVREISGNELIQTYTYEGVEAKRIFKKE | 2.525 | 1.574 | 2.338 | 0.602 | 1.768 | 3.856 | 2.752
72A 73P 74V (protein, listed as Rattus norvegicus, PEPTIDE (1)...(131) wild-type rat intestinal fatty acid binding protein) AFDGTWKVDRNENYEKFMEKMGINVVKRKLGAHDNLKLTITQEGNKFTVKESSNFRNIDVVFELGVDFAYSAPVGTELTGTWTMEGNKLVGKFKRVDNGKELIAVREISGNELIQTYTYEGVEAKRIFKKE | 2.406 | 2.187 | 2.735 | 1.178 | 2.354 | 3.613 | 2.845
18I 31Y 73V 72A (protein, listed as Rattus norvegicus, PEPTIDE (1)...(131) wild-type rat intestinal fatty acid binding protein) AFDGTWKVDRNENYEKFIEKMGINVVKRKLYAHDNLKLTITQEGNKFTVKESSNFRNIDVVFELGVDFAYSAVDGTELTGTWTMEGNKLVGKFKRVDNGKELIAVREISGNELIQTYTYEGVEAKRIFKKE | 1.615 | 1.818 | 2.242 | 1.047 | 1.801 | 2.088 | 2.176
72G 73F 74E (protein, listed as Rattus norvegicus, PEPTIDE (1)...(131) wild-type rat intestinal fatty acid binding protein) AFDGTWKVDRNENYEKFMEKMGINVVKRKLGAHDNLKLTITQEGNKFTVKESSNFRNIDVVFELGVDFAYSGFEGTELTGTWTMEGNKLVGKFKRVDNGKELIAVREISGNELIQTYTYEGVEAKRIFKKE | 0.981 | 0.585 | 1.467 | 0.239 | 0.910 | 2.519 | 2.415
72T 73V 74A (protein, listed as Rattus norvegicus, PEPTIDE (1)...(131) wild-type rat intestinal fatty acid binding protein) AFDGTWKVDRNENYEKFMEKMGINVVKRKLGAHDNLKLTITQEGNKFTVKESSNFRNIDVVFELGVDFAYSTVAGTELTGTWTMEGNKLVGKFKRVDNGKELIAVREISGNELIQTYTYEGVEAKRIFKKE | 2.362 | 1.950 | 2.435 | 1.146 | 2.180 | 3.011 | 2.597
18V 31A 73W 72A (protein, listed as Rattus norvegicus, PEPTIDE (1)...(131) wild-type rat intestinal fatty acid binding protein) AFDGTWKVDRNENYEKFVEKMGINVVKRKLAAHDNLKLTITQEGNKFTVKESSNFRNIDVVFELGVDFAYSAWDGTELTGTWTMEGNKLVGKFKRVDNGKELIAVREISGNELIQTYTYEGVEAKRIFKKE | 2.218 | 1.738 | 2.540 | 0.722 | 1.761 | 3.184 | 2.770
72V 73W 74N (protein, listed as Rattus norvegicus, PEPTIDE (1)...(131) wild-type rat intestinal fatty acid binding protein) AFDGTWKVDRNENYEKFMEKMGINVVKRKLGAHDNLKLTITQEGNKFTVKESSNFRNIDVVFELGVDFAYSVWNGTELTGTWTMEGNKLVGKFKRVDNGKELIAVREISGNELIQTYTYEGVEAKRIFKKE | 2.229 | 1.146 | 1.726 | 0.468 | 1.191 | 3.507 | 2.384
18I 31I 55M 73V 72A (protein, listed as Rattus norvegicus, PEPTIDE (1)...(131) wild-type rat intestinal fatty acid binding protein) AFDGTWKVDRNENYEKFIEKMGINVVKRKLIAHDNLKLTITQEGNKFTVKESSNMRNIDVVFELGVDFAYSAVDGTELTGTWTMEGNKLVGKFKRVDNGKELIAVREISGNELIQTYTYEGVEAKRIFKKE | 1.883 | 1.188 | 1.981 | 0.502 | 1.710 | 2.478 | 2.408
72T 73V 74N (protein, listed as Rattus norvegicus, PEPTIDE (1)...(131) wild-type rat intestinal fatty acid binding protein) AFDGTWKVDRNENYEKFMEKMGINVVKRKLGAHDNLKLTITQEGNKFTVKESSNFRNIDVVFELGVDFAYSTVNGTELTGTWTMEGNKLVGKFKRVDNGKELIAVREISGNELIQTYTYEGVEAKRIFKKE | 2.250 | 2.491 | 2.407 | 1.942 | 2.484 | 2.816 | 2.362
